Data published in patent US20190367592A1 (AC IMMUNE, published 2019).

B1: hu125B11.v17 (HC3+LC1) (antibody, IgG1, V domains shown)
VH: EVQLVESGGGLVQPGGSLRLSCAASRFIFSNYWMNWVRQAPGKGLEWVAQIRLKSDNYATHYAESVKGRFTISRDDSKNTLYLQMNSLRAEDTAVYYCTGGTTYWGQGTLVTVSS
VL: DIQMTQSPSSLSASVGDRVTITCKASQNVGTAVAWYQQKPGKSPKLLIYSASIRYTGVPSRFSGSGSGTDFTLTISSLQPEDFATYFCQQFRTYPYTFGQGTKVEIK
notes: also called hu125B11 HC3 + 125B11 LC1
B2: hu125B11.v28 (HC4+LC4) (antibody, IgG1, V domains shown)
VH: EVQLVESGGGLVQPGGSLRLSCAASRFIFSNYWMNWVRQAPGKGLEWVAQIRLKSDNYATHYAESVKGRFTISRDNSKNTLYLQMNSLRAEDTAVYYCTGGTTYWGQGTLVTVSS
VL: DIQMTQSPSSLSASVGDRVTITCKASQNVGTAVAWYQQKPGKAPKLLIYSASIRYTGVPSRFSGSGSGTDFTLTISSLQPEDFATYYCQQFRTYPYTFGQGTKVEIK
notes: also called hu125B11 HC4 + 125B11 LC4
B3: hu125B11.v26 (HC4+LC2) (antibody, IgG1, V domains shown)
VH: EVQLVESGGGLVQPGGSLRLSCAASRFIFSNYWMNWVRQAPGKGLEWVAQIRLKSDNYATHYAESVKGRFTISRDNSKNTLYLQMNSLRAEDTAVYYCTGGTTYWGQGTLVTVSS
VL: DIQMTQSPSSLSASVGDRVTITCKASQNVGTAVAWYQQKPGKAPKLLIYSASIRYTGVPSRFSGSGSGTDFTLTISSLQPEDFATYFCQQFRTYPYTFGQGTKVEIK
notes: also called hu125B11 HC4 + 125B11 LC2
B4: hu37D3-H9.v30.6 (antibody, V domains shown)
VH: EVQLVESGGGLVQPGGSLRLSCAASGLIFRSYGMSWVRQAPGKGLEWVATINSGGTYTYYPDSVKGRFTISRDNSKNTLYLQMNSLRAEDTAVYYCANSYSGAMDYWGQGTLVTVSS
VL: DDVLTQTPLSLPVTPGQPASISCRSSQSIVHSPGNTYFEWYLQKPGQSPQLLIYKVSNRFSGVPDRFSGSGSGTDFTLKISRVEAEDVGVYYCFQGSLVPWTFGQGTKVEIK
B5: hu37D3.v39 hIgG4.YTE (antibody, V domains shown)
VH: EVQLVESGGGLVQPGGSLRLSCAASGLIFRSYGMSWVRQAPGKGLEWVATINSGGTYTYYPDSVKGRFTISRDNSKNTLYLQMNSLRAEDTAVYYCANSYSGAMDYWGQGTLVTVSS
VL: EDQLTQSPSSLSASVGDRVTITCRSSQSIVHSNGNTYLEWYQQKPGKSPKLLIYKVSNRFSGVPSRFSGSGSGTDFTLTISSLQPEDFATYYCFQGSLVPWTFGQGTKVEIKR
notes: hu37D3-H9.v1 with light chain F33L; also called hu37D3.v39 hIgG4.S228P.YTE
B6: hu37D3.v28.A30 (antibody, V domains shown)
VH: EVQLVESGGGLVQPGGSLRLSCAASGLIFRSYGMSWVRQAPGKGLEWVATINSGGTYTYYPDSVKGRFTISRDNSKNTLYLQMNSLRAEDTAVYYCANSYSGAMDYWGQGTLVTVSS
VL: DVVMTQTPLSLPVTPGQPASISCRSSQSIVHSNGNTYLEWYLQKPGQSPQLLIYKVSNRFSGVPDRFSGSGSGTDFTLKISRVEAEDVGVYYCFQGSHVPWTFGQGTKVEIK
B7: hu37D3-H9.v30.7 (antibody, V domains shown)
VH: EVQLVESGGGLVQPGGSLRLSCAASGLIFRSYGMSWVRQAPGKGLEWVATINSGGTYTYYPDSVKGRFTISRDNSKNTLYLQMNSLRAEDTAVYYCANSYSGAMDYWGQGTLVTVSS
VL: DDVLTQTPLSLPVTPGQPASISCRSSQSIVHSFGNTYFEWYLQKPGQSPQLLIYKVSNRFSGVPDRFSGSGSGTDFTLKISRVEAEDVGVYYCFQGSLVPWTFGQGTKVEIK
B8: hu37D3-H9.v30.8 (antibody, V domains shown)
VH: EVQLVESGGGLVQPGGSLRLSCAASGLIFRSYGMSWVRQAPGKGLEWVATINSGGTYTYYPDSVKGRFTISRDNSKNTLYLQMNSLRAEDTAVYYCANSYSGAMDYWGQGTLVTVSS
VL: DDVLTQTPLSLPVTPGQPASISCRSSQSIVHSYGNTYFEWYLQKPGQSPQLLIYKVSNRFSGVPDRFSGSGSGTDFTLKISRVEAEDVGVYYCFQGSLVPWTFGQGTKVEIK
B9: hu37D3-H9.v30.9 (antibody, V domains shown)
VH: EVQLVESGGGLVQPGGSLRLSCAASGLIFRSYGMSWVRQAPGKGLEWVATINSGGTYTYYPDSVKGRFTISRDNSKNTLYLQMNSLRAEDTAVYYCANSYSGAMDYWGQGTLVTVSS
VL: DDVLTQTPLSLPVTPGQPASISCRSSQSIVHSHGNTYFEWYLQKPGQSPQLLIYKVSNRFSGVPDRFSGSGSGTDFTLKISRVEAEDVGVYYCFQGSLVPWTFGQGTKVEIK
B10: hu37D3.v40 hIgG4.YTE (antibody, V domains shown)
VH: EVQLVESGGGLVQPGGSLRLSCAASGLIFRSYGMSWVRQAPGKGLEWVATINSGGTYTYYPDSVKGRFTISRDNSKNTLYLQMNSLRAEDTAVYYCANSYSGAMDYWGQGTLVTVSS
VL: EDQLTQSPSSLSASVGDRVTITCRSSQSIVHSNTNTYFEWYQQKPGKSPKLLIYKVSNRFSGVPSRFSGSGSGTDFTLTISSLQPEDFATYYCFQGSLVPWTFGQGTKVEIKR
notes: hu37D3-H9.v1 with light chain G29T; also called hu37D3.v40 hIgG4.S228P.YTE
B11: hu37D3.v41 hIgG4.YTE (antibody, V domains shown)
VH: EVQLVESGGGLVQPGGSLRLSCAASGLIFRSYGMSWVRQAPGKGLEWVATINSGGTYTYYPDSVKGRFTISRDNSKNTLYLQMNSLRAEDTAVYYCANSYSGAMDYWGQGTLVTVSS
VL: EDQLTQSPSSLSASVGDRVTITCRSSQSIVHSNGQTYFEWYQQKPGKSPKLLIYKVSNRFSGVPSRFSGSGSGTDFTLTISSLQPEDFATYYCFQGSLVPWTFGQGTKVEIKR
notes: hu37D3-H9.v1 with light chain N30Q; also called hu37D3.v41 hIgG4.S228P.YTE
B12: hu37D3-H9.v1 hIgG1 (antibody)
heavy: not shown
light: EDQLTQSPSSLSASVGDRVTITCRSSQSIVHSNGNTYFEWYQQKPGKSPKLLIYKVSNRFSGVPSRFSGSGSGTDFTLTISSLQPEDFATYYCFQGSLVPWTFGQGTKVEIKRTVAAPSVFIFPPSDEQLKSGTASVVCLLNNFYPREAKVQWKVDNALQSGNSQESVTEQDSKDSTYSLSSTLTLSKADYEKHKVYACEVTHQGLSSPVTKSFNRGEC
notes: also called hu37D3.v1 hIgG1

Legend:
[1] = target: T1, recombinant human Tau monomer, 2N4R isoform (amino acids 2-441) (human, UniProt P10636-8 2-441); assay: SPR screen, hIgG captured, Tau monomer analyte
T1 construct: range 2-441; N-terminal His-tag removed with TEV protease; also called monomeric Tau
T1 sequence (P10636 other isoform, or with tags, fused parts or gaps limits assumed): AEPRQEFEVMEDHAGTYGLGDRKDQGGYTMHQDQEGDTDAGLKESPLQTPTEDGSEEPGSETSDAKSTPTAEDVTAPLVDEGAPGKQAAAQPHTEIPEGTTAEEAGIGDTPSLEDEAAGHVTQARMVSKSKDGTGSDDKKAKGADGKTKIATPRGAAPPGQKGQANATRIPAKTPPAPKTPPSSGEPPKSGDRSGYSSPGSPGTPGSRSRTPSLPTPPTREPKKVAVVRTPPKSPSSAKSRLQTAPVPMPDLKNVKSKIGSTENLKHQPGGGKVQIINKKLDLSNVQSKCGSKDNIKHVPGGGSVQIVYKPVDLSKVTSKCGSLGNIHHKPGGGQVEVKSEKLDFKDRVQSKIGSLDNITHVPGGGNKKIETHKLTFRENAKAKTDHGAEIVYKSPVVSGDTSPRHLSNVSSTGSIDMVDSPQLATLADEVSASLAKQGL
Description: Antibody 125B11-H3 was humanized onto VH3 and Vκ1 consensus frameworks. The heavy chain graft included murine residues at position 78 (Kabat numbering system). The Vκ1 graft included murine residues in framework positions 43 and 87. The light chain of 113F5-F7 was also humanized onto the Vκ1 framework, with additional murine residues at framework positions 43 and 87. Humanized variant heavy chains (125B11) and light chains (125B11 and 113F5-F7) were co-transfected in multiple combinations and purified in 96-well format as described above. Humanized variants were then screened for affinity for human Tau monomer using the Biacore human IgG capture kit, a Series S CM5 chip and a Biacore T200 instrument. Antibodies were diluted to 2 μg/ml and captured for 15 seconds at 10 μl/min. Association and dissociation of 0, 100 and 500 nM human Tau monomer in HBSP was monitored for 180s and 300s respectively at a flow rate of 40 μl/min. A 1:1 binding model was applied to the results (Table 9).

[2] = target: T1, recombinant human Tau monomer, 2N4R …; assay: SPR high-resolution kinetics, hIgG1
[3] = target: T1, recombinant human Tau monomer, 2N4R …; assay: SPR, captured IgG, Tau monomer analyte, 1:1 model; fit-quality column: -
Procedure: Briefly, IgGs in 1 mL culuture were captured using tip columns that were custom packed with 20 μL MabSelect SuRe resin (Glygen Corp & GE Healthcare). After washing with 1×PBS pH 7.4, IgGs were eluted into 160 μL of 50 mM phosphoric acid pH 3 and neutralized with 12 μL of 20×PBS pH 11. MabSelect SuRe tip columns were stripped in 0.1 M NaOH and regenerated with 1×PBS pH 7.4 for consecutive use of up to 15 times. Purified antibodies in 96-well format were normalized to 0.1 mg/ml using a Hamilton Star liquid handling robot. The “pre-stress” samples were kept at approximately 4° C. and the “post-stress” samples were incubated at 40° C. for two weeks in a PCR machine. Functional stability of the variants was compared by running surface plasmon resonance kinetics experiments with the “pre-stress” and “post-stress” antibody preps. The antibodies were assessed using a human antibody capture CM5 Series S chip generated using the GE Biacore human IgG capture kit and a Biacore T200 instrument. Antibodies diluted to 2 μg/ml were immobilized using a 15 second injection time and 10 μl/min flow rate. Binding to Tau monomer at 0 nM, 26.5 nM and 265 nM, at 25° C., using a flow rate of 40 μl/min, was monitored for a 180 second association phase followed by a 300 second dissociation phase. Samples were run in 10 mM HEPES pH7.4, 150 mM NaCl, 0.05% Tween 20 (HBSP) using a multi-cycle kinetics format. Data was analyzed using BIAevaluation software, fitting a 1:1 binding model. The resulting affinity (KD) values are shown in FIG. 8A-D. A Stability Index was also calculated, using the rationale that affinity-compromised antibodies (due for example to deamidation of key residues) are expected to contribute equally to the IgG capture level (“Ligand Level”) but to contribute less to the measured Tau binding, and that this would be reflected in the experimentally derived value for Rmax. To account for variations in the amount of each antibody captured, Rmax was normalized for the antibody capture level (as measured by “Ligand Level”, Response Units immobilized during antibody capture). Thus Normalized Rmax is calculated as the experimental Rmax (units=RU) divided by the “Ligand Level” (Evaluation output representing the RU captured during the hIgG capture step, units=RU), and Stability Index is calculated here as Normalized Rmax (post-stress) divided by Normalized Rmax (pre-stress).

[4] = target: T1, recombinant human Tau monomer, 2N4R …; assay: SPR; Normalized Rmax post-stress (2 weeks 40 C) / pre-stress
Summary of the method: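 Affinities were derived by 1:1 fitting of multi-cycle SPR kinetics, with captured antibody and Tau monomer flowed at 0, 26.5 and 265 nM in HBSP pH7.4 at 25° C. Stability Index was Normalized Rmax (Rmax/Ligand Level) post-stress divided by that pre-stress.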

[5] = target: T1, recombinant human Tau monomer, 2N4R …; assay: SPR single-cycle, human Fab capture kit, Tau monomer analyte; mean ± range, n=2
Procedure: Affinity of the humanized antibody variants was measured at 25° C. using a Biacore T200 instrument, the GE Biacore human FAb capture kit, and a CM5 Series S chip. Antibodies were diluted to 1 μg/ml in HBSP (10 mM HEPES pH7.4, 150 mM NaCl, 0.05% Tween 20) and captured at a flow rate of 10 μl/min for 180 seconds. Kinetic data were collected for human Tau monomer injected at 1.2, 3.7, 11, 33 and 100 nM in HBSP using the Single Cycle Kinetics methodology and a flow rate of 30 μl/min. Each concentration of Tau monomer was injected for a period of 3 minutes and dissociation was monitored for ten minutes. Between cycles, the surface was regenerated with two sequential one-minute injections of 10 mM glycine pH2.1. Data was fit to a 1:1 binding model using BIAEvaluation software. Each antibody was analyzed twice within the experiment; data in Table 22 are shown as mean±range.

| Binder | Kd [3] | Stability Index [4] | Kd [5] | koff [5] | kon [5] | further results |
| --- | --- | --- | --- | --- | --- | --- |
| B1 |  |  |  |  |  | Kd [1]: 18 nM; Kd [2]: 10.5 nM; koff [2]: 0.0008 s⁻¹; kon [2]: 80000 M⁻¹ s⁻¹ |
| B2 |  |  |  |  |  | Kd [1]: 17 nM; Kd [2]: 10.2 nM; koff [2]: 0.0007 s⁻¹; kon [2]: 70000 M⁻¹ s⁻¹ |
| B3 |  |  |  |  |  | Kd [1]: 14 nM; Kd [2]: 9.5 nM; koff [2]: 0.0007 s⁻¹; kon [2]: 70000 M⁻¹ s⁻¹ |
| B4 | 19.1 nM | 270% |  |  |  |  |
| B5 |  |  | 1.9 nM | 0.001 s⁻¹ | 600000 M⁻¹ s⁻¹ |  |
| B6 | 34.4 nM | 77% |  |  |  |  |
| B7 | 34.9 nM | 93% |  |  |  |  |
| B8 | 31.4 nM | 105% |  |  |  |  |
| B9 | 36.4 nM | 63% |  |  |  |  |
| B10 |  |  | 4.4 nM | 0.003 s⁻¹ | 800000 M⁻¹ s⁻¹ |  |
| B11 |  |  | 5.4 nM | 0.005 s⁻¹ | 900000 M⁻¹ s⁻¹ |  |
| B12 |  |  | 2.3 nM | 0.001 s⁻¹ | 600000 M⁻¹ s⁻¹ |  |
